Measured values published in patent US20210230570A1 (published 2021).
Numbering of substitutions follows the chain as printed. Names may count otherwise.

B1: FIXa-R318Y/R338E/E410S (enzyme)
chain 1: YNSGKLEEFVQGNLERECMEEKCSFEEAREVFENTERTTEFWKQYVDGDQCESNPCLNGGSCKDDINSYECWCPFGFEGKNCELDVTCNIKNGRCEQFCKNSADNKVVCSCTEGYRLAENQKSCEPAVPFPCGRVSVSQTSKLTR
chain 2: VVGGEDAKPGQFPWQVVLNGKVDAFCGGSIVNEKWIVTAAHCVETGVKITVVAGEHNIEETEHTEQKRNVIRIIPHHNYNAAINKYNHDIALLELDEPLVLNSYVTPICIADKEYTNIFLKFGSGYVSGWGRVFHKGYSALVLQYLRVPLVDRATCLESTKFTIYNNMFCAGFHEGGRDSCQGDSGGPHVTEVEGTSFLTGIISWGEECAMKGKYGIYTKVSRYVNWIKSKTKLT
notes: also called R150Y/R170E/E240S (chymotrypsin numbering)
B2: FIXa-R318Y/R338E/N346D/R403E/E410N (enzyme)
chain 1: B1 chain 1
chain 2: B1 chain 2 with N166D, R223E, S230N
notes: also called R150Y/R170E/N178D/R233E/E240N (chymotrypsin numbering)
B3: FIXa-R318Y/R338E/N346Y/R403E/E410N (enzyme)
chain 1: B1 chain 1
chain 2: B1 chain 2 with N166Y, R223E, S230N
notes: also called R150Y/R170E/N178Y/R233E/E240N (chymotrypsin numbering)
B4: FIXa-R318Y/R338E/R403E/E410N/T412V (enzyme)
chain 1: B1 chain 1
chain 2: B1 chain 2 with R223E, S230N, T232V
notes: also called R150Y/R170E/R233E/E240N/T242V (chymotrypsin numbering)
B5: FIXa-R318Y/R338E/R403E/E410S (enzyme)
chain 1: B1 chain 1
chain 2: B1 chain 2 with R223E
notes: also called R150Y/R170E/R233E/E240S (chymotrypsin numbering)
B6: FIXa-R318Y/R338E/T343R/N346D/R403E/E410N (enzyme)
chain 1: B1 chain 1
chain 2: B1 chain 2 with T163R, N166D, R223E, S230N
notes: also called R150Y/R170E/T175R/N178D/R233E/E240N (chymotrypsin numbering)
B7: FIXa-R318Y/R338E/T343R/N346Y/R403E/E410N (enzyme)
chain 1: B1 chain 1
chain 2: B1 chain 2 with T163R, N166Y, R223E, S230N
notes: also called R150Y/R170E/T175R/N178Y/R233E/E240N (chymotrypsin numbering)
B8: FIXa-R318Y/R338E/T343R/R403E/E410N (enzyme)
chain 1: B1 chain 1
chain 2: B1 chain 2 with T163R, R223E, S230N
notes: also called R150Y/R170E/T175R/R233E/E240N (chymotrypsin numbering)
B9: FIXa-Y155F/K228N/R318Y/R338E/R403E/E410N (enzyme)
chain 1: B1 chain 1
chain 2: B1 chain 2 with K48N, R223E, S230N
B10: FIXa-Y155F/K247N/N249S/N260S (enzyme)
chain 1: B1 chain 1
chain 2: B1 chain 2 with K67N, N69S, N80S, Y138R, E158R, S230E
B11: FIXa-Y155F/K247N/N249S/R318Y/R338E/E410N (enzyme)
chain 1: B1 chain 1
chain 2: B1 chain 2 with K67N, N69S, S230N
B12: FIXa-Y259F/K265T/Y345T (enzyme)
chain 1: B1 chain 1
chain 2: B1 chain 2 with Y79F, K85T, Y138R, E158R, Y165T, S230E
notes: also called Y94F/K98T/Y177T (chymotrypsin numbering)

Biological target: T1, Factor VIIIa (recombinant FVIII, Kogenate FS, Bayer healthcare, activated with alpha-thrombin) (UniProt P00451 20-2351, limits assumed)
T1 construct: also called FVIIIa; cofactor
T1 sequence (looked up): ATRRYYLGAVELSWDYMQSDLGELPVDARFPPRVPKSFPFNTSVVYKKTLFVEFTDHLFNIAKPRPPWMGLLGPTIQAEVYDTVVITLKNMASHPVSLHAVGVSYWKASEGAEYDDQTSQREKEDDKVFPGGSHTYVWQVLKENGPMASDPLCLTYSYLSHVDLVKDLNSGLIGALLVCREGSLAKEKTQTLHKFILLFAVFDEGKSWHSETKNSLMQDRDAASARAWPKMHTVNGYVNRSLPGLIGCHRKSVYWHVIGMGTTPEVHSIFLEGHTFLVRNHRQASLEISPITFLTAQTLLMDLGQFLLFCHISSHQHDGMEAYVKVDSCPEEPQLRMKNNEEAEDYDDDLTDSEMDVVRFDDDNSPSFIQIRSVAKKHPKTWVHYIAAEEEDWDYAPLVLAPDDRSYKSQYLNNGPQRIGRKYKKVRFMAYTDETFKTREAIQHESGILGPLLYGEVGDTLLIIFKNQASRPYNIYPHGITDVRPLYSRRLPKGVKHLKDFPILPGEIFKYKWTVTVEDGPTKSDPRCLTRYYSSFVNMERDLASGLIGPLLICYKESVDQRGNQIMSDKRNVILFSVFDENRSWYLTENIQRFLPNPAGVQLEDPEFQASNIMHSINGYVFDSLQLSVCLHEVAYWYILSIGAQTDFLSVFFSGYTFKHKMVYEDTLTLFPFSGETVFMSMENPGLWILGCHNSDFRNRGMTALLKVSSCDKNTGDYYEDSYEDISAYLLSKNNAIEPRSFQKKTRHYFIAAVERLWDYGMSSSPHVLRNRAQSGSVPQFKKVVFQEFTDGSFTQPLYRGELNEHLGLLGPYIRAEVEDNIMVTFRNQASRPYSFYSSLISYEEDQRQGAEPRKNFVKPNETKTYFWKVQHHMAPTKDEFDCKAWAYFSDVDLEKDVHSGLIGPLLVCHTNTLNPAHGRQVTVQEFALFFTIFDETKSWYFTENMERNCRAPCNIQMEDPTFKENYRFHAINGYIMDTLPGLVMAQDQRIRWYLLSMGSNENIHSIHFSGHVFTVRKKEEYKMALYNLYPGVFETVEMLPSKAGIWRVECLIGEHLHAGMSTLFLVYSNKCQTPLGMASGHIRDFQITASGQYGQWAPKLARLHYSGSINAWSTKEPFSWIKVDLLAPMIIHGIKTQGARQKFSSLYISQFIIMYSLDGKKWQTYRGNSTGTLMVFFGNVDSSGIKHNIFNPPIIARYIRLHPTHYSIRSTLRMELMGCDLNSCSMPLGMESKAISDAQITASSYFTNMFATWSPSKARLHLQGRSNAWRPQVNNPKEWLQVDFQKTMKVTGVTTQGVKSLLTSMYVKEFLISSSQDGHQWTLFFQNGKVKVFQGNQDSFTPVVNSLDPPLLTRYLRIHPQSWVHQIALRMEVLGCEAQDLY
Assay: same assay; KD-app of Catalyst Biosciences WT FIXa divided by KD-app of the variant
Description: The molar concentration of FVIII was then determined by absorbance at 280 nm using an extinction coefficient of 1.567 mg⁻¹ mL cm⁻¹ and a molecular weight of 163.6 kDa.

Binder | KD-WT/KD-mut [ratio]
B1 | 14.1
B2 | 0.9
B3 | 2.4
B4 | 1.7
B5 | 1.8
B6 | 1.3
B7 | 6.1
B8 | 6.6
B9 | 3.1
B10 | 0.6
B11 | 12.8
B12 | 0.8
